These results are taken from US20230295316A1 (FRED HUTCHINSON CANCER CENTER, published 2023).

For test [1], the target named is T1, human interleukin-3 (IL-3) receptor alpha-chain (CD123), on cells (human, UniProt P26951 19-378).
T1 construct: whole, on cells; also called human CD123
Briefly: flow cytometry (PE-Cy7-A), mAb + labeled secondary antibody, RS4;11 cells transduced with human CD123. For orientation: In flow cytometry, cells or beads pass a laser one at a time.

Test [2] deals with T1, human interleukin-3 (IL-3) receptor …. Kind of test: flow cytometry (PE-A), 2 µg/mL by the legend (hybridoma supernatants by paragraph 203) + labeled secondary antibody, parental MOLM-13 cells against MOLM-13 CD123KO.
Test [3] deals with T2, Hs_CD123_6His-Avi (CD123 ECD-His-Avi fusion protein) (human, UniProt P26951 19-303).
T2 construct: The signal peptide is marked only by bold type, so its limits cannot be read here and were not guessed; also called His-Avi tagged peptide encompassing the ECD of human CD123
T2 sequence: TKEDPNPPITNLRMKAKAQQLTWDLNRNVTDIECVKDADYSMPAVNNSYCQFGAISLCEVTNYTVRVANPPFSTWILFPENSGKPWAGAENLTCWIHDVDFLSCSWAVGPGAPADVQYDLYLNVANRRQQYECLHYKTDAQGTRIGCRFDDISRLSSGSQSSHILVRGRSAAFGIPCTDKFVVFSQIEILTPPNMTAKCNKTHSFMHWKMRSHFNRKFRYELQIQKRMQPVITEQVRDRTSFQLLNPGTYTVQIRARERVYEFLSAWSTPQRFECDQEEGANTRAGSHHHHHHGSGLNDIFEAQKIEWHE
Kind of test: competition ELISA: plate coated with CD123 ECD-His-Avi, biotinylated 10C4 as competitor, increasing unlabeled antibody, HRP-streptavidin; unit not given, x axis is log(concentration). From the text:
(§1) FIGS. 15A-15B. Enzyme-linked immunosorbent assay (ELISA) with the original mouse 10C4 antibody and peptide encompassing the entire extracellular domain (ECD) of CD123 was used to test competitive binding of 10C4 compared to recombinant (FIG. 15A) human IgG1 versions and (FIG. 15B) human IgG4 versions of chimeric 10C4 and humanized 10C4 monoclonal antibodies. Plates were coated with CD123 ECD-His-Avi fusion protein and bound to biotinylated 10C4 antibody in the presence or absence of increasing amounts of competing unlabeled antibodies, as detected by HRP-Streptavidin.
A general note: In an ELISA, binding on a coated surface is turned into a signal by an enzyme label.

The target in test [4] is T2, Hs_CD123_6His-Avi (CD123 ECD-His-Avi …). Described as above.
Description: as §1
This is another data set of the same source.

Test [5] shares this target. Kind of test: SPR (Biacore T-100), univalent affinity; antibody captured on the CM4 chip, human CD123 ECD as analyte. On the procedure:
FIGS. 13A-13B. Surface plasmon resonance (Biacore T-100) analyses were performed to rigorously/precisely determine univalent binding affinities of recombinant chimeric and humanized versions of the anti-human CD123 monoclonal antibody 10C4, using (FIG. 13A) human IgG1 and (FIG. 13B) human IgG4 frameworks. For these experiments, a peptide encoding the complete extracellular portion of human CD123 was used, and the antibodies were captured on the biosensor chip (CM4) via a Fc gamma-specific goat anti-human IgG and amine coupling.

Test [6] concerns the target T1, human interleukin-3 (IL-3) receptor …. Kind of test: flow cytometry (APC-A), unmodified mAb + secondary antibody, RS4;11 cells overexpressing human CD123 [CONT.]. From the text:
FIG. 4. Parental CD123-negative human RS4;11 ALL cells and RS4;11 cells engineered to overexpress human CD123 were used for flow cytometric phenotyping of a series of anti-CD123 mAbs (11F11, 5G4, 10C4, 1H8) that were either left unmodified or were reacted with 5, 10, or 15 equivalents of B10. A secondary mAb-only control is also shown.

The target in test [7] is T2, Hs_CD123_6His-Avi (CD123 ECD-His-Avi …). Kind of test: competition ELISA against biotinylated 10C4 on coated CD123 ECD-His-Avi; percent relative to the 10C4 row of the drawn table.
Description: as §1

In test [8] the target is T1, human interleukin-3 (IL-3) receptor …. Kind of test: flow cytometry (PE-A), recombinant human IgG1 mAb + labeled secondary antibody, parental MOLM-13 cells against MOLM-13 CD123KO.

Positions count from the first letter of the chain named. Where two headings read alike, the source gives them in different places.

B1: 123-5C7 (murine anti-CD123 antibody, IgG2b isotype, Kappa Light Chain) (antibody, V domains shown)
VH: DVQLQESGPGLVKPSQSLSLTCSVTGYSITSSYYWNWIRQFPGNKLEWMGYISYDGSNNYNPSLKNRISITRDTSKTQFFLNLNSVTTEDTATYYCARGDGYYFDYWGQGTTLTVSS
VL: DFVMSQSPSSLAVSVGEKITINCKSSQSLFFGSTQKNYLAWYQQKPGQSPKLLIFWSSTRESGVPDRFTGSGSGTDFTLSINSVKAEDLAVYYCQQYYNYPWTFGGGTKLEIK
notes: murine IgG2b, kappa
B1: the binding result in test [1] is recorded as “binds”.

B2: 123-ATX1B2 (Human anti-CD123 antibody from ATX-GX mouse, Kappa Light Chain) (antibody, V domains shown)
VH: QVQLVQSGAEVKKPGASVEVSCKASGYTFTGYYIHWVRQAPGQGLEWMGWINPNSGGTNYAQKFQGRVTMTWDTSISTAFMELSRLRSDDTAVYSCARDRGGPYFDYWGQGTLVIVSS
VL: DIQMTQSPSSLSASVGDRVTITCQASQDITNYLNWYQQKPGKAPKLQIYDASNLETGVPSRFSGSGSGTDFTFTISSLQPEDIATYYCQQHDDLPLTFGGGTKVEIK
B2: the binding result in test [2] is “binds”.

B3: 123-10C4 (murine anti-CD123 antibody, IgG2b isotype, Kappa Light Chain) (antibody, V domains shown)
VH: QVQLKESGPGLVAPSQNLSITCTVSGFSLTTYDINWIRQPPGKGLEWLGVIWTGGGTNYNSAFMSRLSISKDNSKSQVFLKMNSLQTDDTAMYYCVRGDTYHYALDFWGQGTSVTVSS
VL: DIVMSQSPSSLAVSAGEKVTMSCKSSQSLLSSGTRKNYLAWYQQKPGQSPKLLIYWASTRESGVPDRFTGSGSGTDFTLTISSVQAEDLAVYYCKQSYILFTFGSGTKLEIK
notes: also called parent murine 10C4; murine anti-human CD123 monoclonal antibody 10C4
Consider B3, for which the “Calculated concentration at 1/2 OD” value in test [3] is 1.04. In test [4], the “Calculated concentration at 1/2 OD” value was 1.12. For the same molecule, in test [5], the dissociation constant Kd – broadly, the equilibrium constant for the complex coming apart – turned out to be 0.401 nM; the koff (in general, the rate constant with which the complex falls apart) was 0.000102 s⁻¹; the on-rate (kon) (commonly the second-order rate constant of association) came to 254000 M⁻¹ s⁻¹.

B4: 123-ATX1B7 (Human anti-CD123 antibody from ATX-GX mouse, Kappa Light Chain) (antibody, V domains shown)
VH: QVQLVQSGAEVKKPGASVKVSCKASGYTFTSFGLTWVRQAPGQGLEWMGWFNAYSGKTYYAPTLQDRVTMTTDPSTSTAYMELMSLTSDDTAIYYCARDLVFDYWGQGTLVTVSS
VL: EIVLTQSPGTLSLSPGERATLSCRASQSFSDRYLAWYQQKPGQAPRLLIYGTSSRATGIPDRFSGSGSGTDFTLTISRLESEDSAVYYCQQYGRSPFTFGPGTKVDIK
As for B4, the binding result in test [2] is on record as “binds”.

B5: 123-ATX1E5 (Human anti-CD123 antibody from ATX-GX mouse, Kappa Light Chain) (antibody, V domains shown)
VH: B4 VH with L34I, T35S, K57N, P74T, T87R
VL: B4 VL with S53F, E80D, S84F, R94S
Regarding B5, the binding result in test [2] was “binds”.

B6: 123-5G4 (murine anti-CD123 antibody, IgG2a isotype, Kappa Light Chain) (antibody, V domains shown)
VH: DVQLQESGPGLVKPSQSLSLTCTVTGYSITSDYVWNWIRQFPGNKLEWMAYISYSGTTSYNPSLSSRISITRDTSSNQFFLQLNSVTSEDTATYYCARGLDYWGQGTSVTVSS
VL: QIVLTQSPAIMSVSLGERVTMTCTASSSVTSSYFHWYQQKPGSSPKLWIYSTSNLASGVPARFSGSGSGTSYSLTISSMEAEDAATYYCHQYHRSPRTFGGGTKLEIK
notes: murine IgG2a, kappa
On to B6, for which, in test [6], the binding result is reported as “binds”.

B7: 123-1H8 (murine anti-CD123 antibody, IgG1 isotype, Kappa Light Chain) (antibody, V domains shown)
VH: EVKLVESEGGLVQPGSSMKLSCTASGFTFSDYYMAWVRQVPEKGLEWVANIDDEGSSTYYLDSLKSRFIISRDNAKNILYLQMTSLKSEDTATYYCARGTTQTSFFVHWGQGTLVTVSA
VL: DIVLTQSPASLAVSLGQRATISCRASQSVSSSSYSFMHWYQKKPRQPPKLLIKYASTLEAGVPARFSGSGSGTDFTLNIHPVEEEDTATYYCQHSWEIPYTFGGGTKLEIK
notes: murine IgG1, kappa
Regarding B7, in test [6], the binding result is reported as “binds”.

B8: Chi-10C4, recombinant chimeric 10C4, human IgG4 framework (antibody)
heavy: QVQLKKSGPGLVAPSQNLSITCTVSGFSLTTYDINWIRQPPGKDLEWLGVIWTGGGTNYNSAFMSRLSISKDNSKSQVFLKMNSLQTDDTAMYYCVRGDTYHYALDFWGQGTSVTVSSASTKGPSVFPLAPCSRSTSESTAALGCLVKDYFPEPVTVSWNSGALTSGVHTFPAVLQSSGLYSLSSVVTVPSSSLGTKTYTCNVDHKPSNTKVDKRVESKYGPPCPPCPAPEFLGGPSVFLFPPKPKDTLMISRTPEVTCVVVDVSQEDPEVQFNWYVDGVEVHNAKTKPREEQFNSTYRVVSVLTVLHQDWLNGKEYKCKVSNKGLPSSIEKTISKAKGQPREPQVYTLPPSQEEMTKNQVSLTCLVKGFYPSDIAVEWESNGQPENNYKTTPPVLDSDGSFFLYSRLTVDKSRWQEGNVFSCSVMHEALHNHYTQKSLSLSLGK
light: DIVMSQSPSSLAVSAGEKVTMSCKSSQSLLSSGTRKNYLAWYQQKPGQSPKLLIYWASTRESGVPDRFTGSGSGTDFTLTISSVQAEDLAVYYCKQSYILFTFGSGTKLEIKRTVAAPSVFIFPPSDEQLKSGTASVVCLLNNFYPREAKVQWKVDNALQSGNSQESVTEQDSKDSTYSLSSTLTLSKADYEKHKVYACEVTHQGLSSPVTKSFNRGEC
notes: Signal peptide left out as for the IgG1 form
In the case of B8, the Immunoreactivity in test [7] came out at 116%. Further, the “Calculated concentration at 1/2 OD” value in test [3] was 1.21. In test [5], the dissociation constant (Kd) was determined as 1.39 nM, the koff worked out at 0.00011 s⁻¹ and the kon amounted to 79100 M⁻¹ s⁻¹.

B9: Chi-10C4, recombinant chimeric 10C4, human IgG1 framework (antibody)
heavy: not shown
light: B8 light
On to B9, for which the Immunoreactivity in test [7] amounted to 100%. In addition, the “Calculated concentration at 1/2 OD” value in test [4] was 1.12. Further, in test [5], binding was characterised by a dissociation constant (Kd) of 0.572 nM, the koff came to 5.24e-05 s⁻¹ and the association rate constant (kon) is 91600 M⁻¹ s⁻¹.

B10: 123-13E1 (murine anti-CD123 antibody, IgG2b isotype, Kappa Light Chain) (antibody, V domains shown)
VH: EVQLQQSGPELVKPGASVKISCKASGYTFTDHYMNWVKQSHGERLEWIGDIIPNNGGSTYSQKFKGKATLTVDKSSSTAYMELRSLTSEDSAVYYCARNGYYWYFDVWGTGTTVTVSS
VL: DIVLTQSPSSLAMSVGQKVTMSCKSSQSLLNSSNQKNYLAWYQQKPGQSPKLLVYFASTRESGVPDRFTGSGSGTDFTLTISTVQAEDLAFYYCHQHYSIPRTFGGGTKLEIT
notes: murine IgG2b, kappa
For the molecule B10, in test [1], the binding result is recorded as “binds”.

B11: 123-12A10 (murine anti-CD123 antibody, IgG2b isotype, Kappa Light Chain) (antibody, V domains shown)
VH: EVQLQQSGPELVKPGASVKISCKTSGYTFTDYYMNWVKQSHGKSLEWIGDIIPNNGGTSYHQKFKGKATLTVDKSSNTAYMELRSLTSEDSAVYYCARYGSSWFFDVWGTGTTVTVSS
VL: DIVMSQSPSSLAVSVGEKVTMSCKSSQSLLHSSNQKNYLAWYQQKPGQSPKLLIYWASTRESGVPDRFTGSGSGTDFTLTISSVKAEDLAVYYCQQYYSFPRTFGGGTKLEIK
notes: murine IgG2b, kappa
As to B11, the binding result in test [1] is recorded as “binds”.

B12: 123-ATX1F2 (Human anti-CD123 antibody from ATX-GX mouse, Kappa Light Chain) (antibody, V domains shown)
VH: QVQLVQSGAEVKKPGASVKVSCKVSGYTLTEFSMHWVRQAPGKGLEWMGVFDPEHGATIYAQKFQGRVTMTEDTSTDTAYMDLSYLRSEDTAVYYCATYFDFWSGYSHFDFWGQGTLVTVSS
VL: DIQMTQSPSSLSASVGDRVTITCRASQGIRNDLGWYQQRPGKAPKRLIYAASSLQSGVPSRFSGSGSGTEFTLAISSLQPEDFATYSCLQHNSYPWTFGQGTKVEIK
Regarding B12, in test [2], the binding result is reported as “binds”.

B13: 123-ATX1F2, fully human recombinant antibody, human IgG1 framework (antibody)
heavy: not shown
light: DIQMTQSPSSLSASVGDRVTITCRASQGIRNDLGWYQQRPGKAPKRLIYAASSLQSGVPSRFSGSGSGTEFTLAISSLQPEDFATYSCLQHNSYPWTFGQGTKVEIKRTVAAPSVFIFPPSDEQLKSGTASVVCLLNNFYPREAKVQWKVDNALQSGNSQESVTEQDSKDSTYSLSSTLTLSKADYEKHKVYACEVTHQGLSSPVTKSFNRGEC
notes: also called 1F2 (human IgG1)
For the molecule B13, in test [8], the binding result is on record as “binds”.
